According to patent US20230265185A1 (NATIONAL RESEARCH COUNCIL OF CANADA, published 2023):

T1: hCD22 fragment Bin 2, IVR2 (aa111-230), displayed on yeast cells (human, UniProt P20273 130-249)
T1 construct: range 111-230; Range is counted on the mature ECD, not on the UniProt entry; on P20273 it would be 130-249 (my arithmetic); not shown: Aga2-HA display fusion partner of vector pPNL6; MYC tag
T1 sequence (looked up): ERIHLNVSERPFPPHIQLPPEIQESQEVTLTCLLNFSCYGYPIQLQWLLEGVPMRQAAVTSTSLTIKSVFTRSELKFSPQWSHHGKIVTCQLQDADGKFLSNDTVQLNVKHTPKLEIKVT

T2: hCD22 fragment Bin 4, IVR4 (aa303-405), displayed on yeast cells (human, UniProt P20273 322-424)
T2 construct: Range is counted on the mature ECD, not on the UniProt entry; on P20273 it would be 322-424 (my arithmetic); also called CD22 Sub-Domain 4; not shown: Aga2-HA display fusion partner of vector pPNL6; MYC tag
T2 sequence (looked up): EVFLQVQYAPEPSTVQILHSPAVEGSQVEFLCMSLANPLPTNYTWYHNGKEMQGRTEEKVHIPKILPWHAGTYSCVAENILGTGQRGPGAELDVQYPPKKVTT

T3: full-length hCD22-ECD (668aa) displayed on yeast cells (human, UniProt P20273 20-687)
T3 construct: extracellular domain; Yeast surface display fusion Aga2-HA-(insert)-MYC; also called Bin 8; CD22-ECD Full lenght; not shown: Aga2-HA display fusion partner of vector pPNL6; MYC tag
T3 sequence (looked up): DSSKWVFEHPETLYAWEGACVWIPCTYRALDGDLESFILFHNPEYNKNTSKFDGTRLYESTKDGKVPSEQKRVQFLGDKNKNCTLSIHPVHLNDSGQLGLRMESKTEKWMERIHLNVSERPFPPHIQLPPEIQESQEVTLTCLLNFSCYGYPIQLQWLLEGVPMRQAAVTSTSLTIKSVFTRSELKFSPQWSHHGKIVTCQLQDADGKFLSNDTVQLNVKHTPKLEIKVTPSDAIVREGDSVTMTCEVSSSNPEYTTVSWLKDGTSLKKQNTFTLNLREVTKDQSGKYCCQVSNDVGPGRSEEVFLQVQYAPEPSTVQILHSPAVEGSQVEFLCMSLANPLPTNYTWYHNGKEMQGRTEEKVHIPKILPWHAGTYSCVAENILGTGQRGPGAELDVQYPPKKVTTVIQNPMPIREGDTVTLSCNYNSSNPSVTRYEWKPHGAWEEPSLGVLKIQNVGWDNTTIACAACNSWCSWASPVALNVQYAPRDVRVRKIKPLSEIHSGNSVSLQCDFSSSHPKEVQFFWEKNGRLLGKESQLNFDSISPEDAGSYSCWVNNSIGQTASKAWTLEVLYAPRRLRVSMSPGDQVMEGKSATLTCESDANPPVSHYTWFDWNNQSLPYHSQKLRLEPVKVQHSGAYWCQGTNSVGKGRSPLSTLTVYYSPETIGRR

T4: recombinant extracellular domain of the predominant human CD22-beta isoform (CD22-ECD) (human, UniProt P20273 20-687, CHO-expressed glycoprotein. Capture on an SA chip implies biotinylation, but the patent does not state it for SPR.)
T4 construct: Expressed in CHO-3E7 cells, IMAC and SEC purified, monomeric fraction; Results say it was immobilized onto a CM5 dextran chip; also called human CD22-ECD; hCD22 ecto-domain
T4 sequence: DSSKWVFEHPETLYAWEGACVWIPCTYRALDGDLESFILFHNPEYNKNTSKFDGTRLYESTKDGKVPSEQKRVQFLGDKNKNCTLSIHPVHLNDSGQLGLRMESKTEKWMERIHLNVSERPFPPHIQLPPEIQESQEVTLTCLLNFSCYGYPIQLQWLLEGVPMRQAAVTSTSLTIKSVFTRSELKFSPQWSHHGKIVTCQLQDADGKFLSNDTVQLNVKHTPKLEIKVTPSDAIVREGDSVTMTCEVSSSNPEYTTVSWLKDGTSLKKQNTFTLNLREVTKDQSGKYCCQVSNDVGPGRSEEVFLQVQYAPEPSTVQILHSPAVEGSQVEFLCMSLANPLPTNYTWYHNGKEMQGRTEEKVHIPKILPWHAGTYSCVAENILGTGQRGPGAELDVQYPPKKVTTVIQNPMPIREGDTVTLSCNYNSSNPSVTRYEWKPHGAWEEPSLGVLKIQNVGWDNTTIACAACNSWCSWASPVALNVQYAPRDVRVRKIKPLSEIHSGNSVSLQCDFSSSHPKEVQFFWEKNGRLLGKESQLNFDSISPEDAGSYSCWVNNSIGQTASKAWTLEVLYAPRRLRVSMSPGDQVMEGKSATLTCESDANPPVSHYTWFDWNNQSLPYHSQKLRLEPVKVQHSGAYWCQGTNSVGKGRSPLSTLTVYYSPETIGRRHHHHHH

B1: hCD221ug-80 (VHH)
VHH: QVQLVESGGGLVQPGGSLRLSCTFSGFTLDYYVMVWFRQAPGKEREAVSCITSDGVTYYADSVKGRFTISRDNAKNTVYLQMNRVKPEDTAVYYCAVDKPFYDGGIQYTCPVDFDSWGQGAQVTVSS
modifications: single biotin at the VHH C-terminal (biotinylation signal sequence)
notes: llama VHH, expressed in E. coli TG1, IMAC purified, monomeric SEC fraction; also called VHH # 1; 2-hCD22 1ug-80
B2: hCD22pas-64 (VHH)
VHH: QVQLVESGGGLVQAGGSLRLSCAASGSTFSLNTMAWYRQAPGNQREYVAAASSDGYTNYADSVRGRFTISRDNDKNTMYLQMNSLRPEDTAVYYCTWGTGRFADYIYWGQGTQVTVSS
modifications: single biotin at the VHH C-terminal (biotinylation signal sequence)
notes: llama VHH, expressed in E. coli TG1, IMAC purified, monomeric SEC fraction; also called VHH # 25; 7-hCD22 pas-64
B3: hCD22pas-32 (VHH)
VHH: QVQLVESGGGLVQAGGSLRLSCAVSGRIFRSYVLGWFRQAPGKERELVARIGWSDTYYADSVKGRFTISRDNAKNTVDLQMNSLKPEDTAVYYCAANSPPYGPQRDEFGYWGQGTQVTVSS
modifications: single biotin at the VHH C-terminal (biotinylation signal sequence)
notes: llama VHH, expressed in E. coli TG1, IMAC purified, monomeric SEC fraction; also called VHH # 15; 6-hCD22 pas-32
B4: hCD221ug-61 (VHH)
VHH: QVQLVESGGGLVQAGGSLRLSCAASMSSFSQYVMYWYRQAPGKQRELVATITSYSNTNYADSVKGRFTISRDNAKSIAYLQMDSLKPEDTAVYYCNAQYGSTFIRNHWDDWGQGTQVTVSS
modifications: single biotin at the VHH C-terminal (biotinylation signal sequence)
notes: llama VHH, expressed in E. coli TG1, IMAC purified, monomeric SEC fraction; also called VHH # 14; 3-hCD22 1ug-61
B5: hCD22pas-24 (VHH)
VHH: QVQLVESGGGLVQAGGSLRLSCSASGITSSINSMGWHRQAPGKQRELVASIGRGGSGSTKYADSGKGRFLISRDNNKNILFLEMNSLKPEDTADYYCLEVTTDLSSYWGRGTQVTVSS
modifications: single biotin at the VHH C-terminal (biotinylation signal sequence)
notes: llama VHH, expressed in E. coli TG1, IMAC purified, monomeric SEC fraction; also called VHH # 26; 8-hCD22 pas-24
B6: hCD221ug-10 (VHH)
VHH: QVQLVESGGGLVQAGGSLSVSCTASESTFSIMMGWFRQAPGKQREMVAVINSAGSTNYADSAEGRFTISRDLAKKTVSLQMNSLKPEDTAVYYCYVDGYFGQGTQVTVSS
modifications: single biotin at the VHH C-terminal (biotinylation signal sequence)
notes: llama VHH, expressed in E. coli TG1, IMAC purified, monomeric SEC fraction; also called VHH # 23; 5-hCD22 1ug-10
B7: hCD221ug-13 (VHH)
VHH: QVQLVESGGGLVQAGDSLRLSCAGSGGSFSSVTMAWFRQAPGKDREFVAAITWSSPSTYYADSVKGRFTISRDNAKNTVYLQMNSLKPEDTAVYYCAGGRTGRGTSADTDEYNYWGQGTQVTVSS
modifications: single biotin at the VHH C-terminal (biotinylation signal sequence)
notes: llama VHH, expressed in E. coli TG1, IMAC purified, monomeric SEC fraction; also called VHH # 21; 1-hCD22 1ug-13
B8: hCD221ug-36 (VHH)
VHH: EVQLVDSGGGLVQAGGSLRVSCEASGITFSRAAMGWYRQRPGKERERVAVVNSDSSTIYADSVKGRFTISRDNAKNTVYLQMNSLEPEDTAVYYCWSPGFGSYWGQGTQVTVSS
modifications: single biotin at the VHH C-terminal (biotinylation signal sequence)
notes: llama VHH, expressed in E. coli TG1, IMAC purified, monomeric SEC fraction; also called VHH # 22; 4-hCD22 1ug-36

molecular target: T1, hCD22 fragment Bin 2, IVR2 (aa111-230), …; test: yeast display cell ELISA
Experimental: (§1) The YSD vector (pPNL6) was from The Pacific Northwest National Laboratory, USA. […] The HRP activity was assayed with substrate TMB (tetramethyl benzidine) according to the manufacture’s conditions and read at OD₄₅₀.
(§2) The wells that gave rise to OD₄₅₀ above 0.25 were highlighted, indicating significant antibody-antigen interactions. All the sdAbs tested except hCd22_1ug-14 were assigned to specific Bin(s).

| Binder | binding result |
| --- | --- |
| B1 | no binding (tested: OD450 not above 0.25; sdAb 250 nM) |
| B2 | no binding (tested: OD450 not above 0.25; sdAb 250 nM) |
| B3 | no binding (tested: OD450 not above 0.25; sdAb 250 nM) |
| B4 | no binding (tested: OD450 not above 0.25; sdAb 250 nM) |
| B5 | no binding (tested: OD450 not above 0.25; sdAb 250 nM) |
| B6 | no binding (tested: OD450 not above 0.25; sdAb 250 nM) |
| B7 | no binding (tested: OD450 not above 0.25; sdAb 250 nM) |
| B8 | no binding (tested: OD450 not above 0.25; sdAb 250 nM) |

molecular target: T2, hCD22 fragment Bin 4, IVR4 (aa303-405), …; test: yeast display cell ELISA
Experimental: as §1, §2

| Binder | binding result |
| --- | --- |
| B1 | no binding (tested: OD450 not above 0.25; sdAb 250 nM) |
| B2 | no binding (tested: OD450 not above 0.25; sdAb 250 nM) |
| B3 | no binding (tested: OD450 not above 0.25; sdAb 250 nM) |
| B4 | no binding (tested: OD450 not above 0.25; sdAb 250 nM) |
| B5 | no binding (tested: OD450 not above 0.25; sdAb 250 nM) |
| B6 | no binding (tested: OD450 not above 0.25; sdAb 250 nM) |
| B8 | no binding (tested: OD450 not above 0.25; sdAb 250 nM) |

molecular target: T3, full-length hCD22-ECD (668aa) displayed …; test: yeast display cell ELISA, biotinylated sdAb 250 nM
Experimental: as §1, §2

| OD450 [OD450] | Binder |
| --- | --- |
| 1.81 | B1 |
| 0.289 | B3 |
| 1.48 | B4 |
| 1.18 | B5 |
| 0.332 | B6 |
| 1.19 | B7 |
| 1.42 | B8 |

molecular target: T4, recombinant extracellular domain of the …; test: SPR, Biacore T200, VHH over immobilized CD22-ECD
Experimental: For surface Plasmon resonance, 21 selected VHHs were passed though size exclusion columns, superdex 75 (GE Healthcare), respectively, in 10 mM HEPES, pH 7.4, containing 150 mM NaCl, 3 mM EDTA, monomeric sdAb fractions were collected and protein concentrations were determined by measuring absorbance at 280 nm (A280). Analysis were performed with Biacore T200 instrument (GE Healthcare). All measurements were carried out at 25° C. in 10 mM HEPES, pH 7.4, containing 150 mM NaCl, 3 mM EDTA and 0.005% surfactant P20 (GE Healthcare). Approximately 1919 RUs of the recombinant monomeric CD22-ECD (obtained after SEC purification of the CD22-ECD) were captured on SA sensor chip (GE Healthcare) at a flow rate of 5 uL/min. Various concentration of the monomeric VHHs were injected over CD22-ECD surface, respectively using an SA surface as a reference at a flow rate of 40 µL/min. Surfaces were generated by washing with running buffer. Data were analysed with BIAevaluation 4.1 software.
The monomeric fraction of all 21 VHHs were used for SPR experiment where the human CD22-ECD was immobilized onto the CM5 dextran chip and various VHH concentration (0.6-400 nM) were passed over the sensor chip. […] All of the data collected fit a 1:1 binding model.

| Kd [nM] | koff [s⁻¹] | kon [M⁻¹ s⁻¹] | Binder |
| --- | --- | --- | --- |
| 30.3 | 0.000633 | 20900 | B1 |
| 250 | 0.0271 | 108000 | B2 |
| 23.4 | 0.00369 | 158000 | B3 |
| 0.546 | 0.000681 | 1.25e+06 | B4 |
| 26 | 0.00386 | 148000 | B5 |
| 3.68 | 0.00176 | 477000 | B6 |
| 2.91 | 0.000675 | 232000 | B7 |
| 9.59 | 0.00114 | 119000 | B8 |
